B1: Myotubularin (Homo sapiens), Q13496 (parent)
chain: MASASTSKYNSHSLENESIKRTSRDGVNRDLTEAVPRLPGETLITDKEVIYICPFNGPIKGRVYITNYRLYLRSLETDSSLILDVPLGVISRIEKMGGATSRGENSYGLDITCKDMRNLRFALKQEGHSRRDMFEILTRYAFPLAHSLPLFAFLNEEKFNVDGWTVYNPVEEYRRQGLPNHHWRITFINKCYELCDTYPALLVVPYRASDDDLRRVATFRSRNRIPVLSWIHPENKTVIVRCSQPLVGMSGKRNKDDEKYLDVIRETNKQISKLTIYDARPSVNAVANKATGGGYESDDAYHNAELFFLDIHNIHVMRESLKKVKDIVYPNVEESHWLSSLESTHWLEHIKLVLTGAIQVADKVSSGKSSVLVHCSDGWDRTAQLTSLAMLMLDSFYRSIEGFEILVQKEWISFGHKFASRIGHGDKNHTDADRSPIFLQFIDCVWQMSKQFPTAFEFNEQFLIIILDHLYSCRFGTFLFNCESARERQKVTERTVSLWSLINSNKEKFKNPFYTKEINRVLYPVASMRHLELWVNYYIRWNPRIKQQQPNPVEQRYMELLALRDEYIKRLEELQLANSAKLSDPPTSPSSPSQMMPHVQTHF

Variants of: B1
Settings: with desm_human DES

Effect of a mutation on the interaction, disrupting interaction:
R184G
P205L
R241C
D278A
